Article PMC2962642, “Familial Glucocorticoid Receptor Haploinsufficiency by Non-Sense Mediated mRNA Decay, Adrenal Hyperplasia and Apparent Mineralocorticoid Excess”

Target: hGRalpha-R469X (Homo sapiens, UniProt P04150 1-468)
Assay: EMSA; 15 min at 25 C; 4.5% acrylamide/bisacrylamide (37:1) gel, 0.25x TBE (50 mM Tris, 50 mM boric acid, 1 mM EDTA); binding buffer and pH not stated (as in ref. 26)
Details: protein: ivt; label: 32P-dCTP (Klenow fill-in); 5' overhangs AGCT, filled in by Klenow for the labeled probe

Sequence of hGRalpha-R469X (P04150 1-468): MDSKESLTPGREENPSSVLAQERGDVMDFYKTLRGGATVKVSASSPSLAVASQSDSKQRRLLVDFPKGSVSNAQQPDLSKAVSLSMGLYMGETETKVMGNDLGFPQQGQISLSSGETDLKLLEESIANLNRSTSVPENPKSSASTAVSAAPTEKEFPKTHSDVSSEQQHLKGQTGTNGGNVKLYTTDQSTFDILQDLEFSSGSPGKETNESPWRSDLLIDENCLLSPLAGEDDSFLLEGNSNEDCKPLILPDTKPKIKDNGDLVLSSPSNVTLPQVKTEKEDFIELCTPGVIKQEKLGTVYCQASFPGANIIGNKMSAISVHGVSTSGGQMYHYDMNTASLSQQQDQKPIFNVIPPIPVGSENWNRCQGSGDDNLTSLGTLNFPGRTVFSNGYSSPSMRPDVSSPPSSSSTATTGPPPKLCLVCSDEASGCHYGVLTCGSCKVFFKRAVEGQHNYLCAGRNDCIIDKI

B1: GRE consensus probe (dsDNA)
DNA 1: AGCTGCTCAGCTAGAACACTCTGTTCTCTACT
DNA 2: AGCTAGTAGAGAACAGAGTGTTCTAGCTAGC
binding result: no binding
